This is an account of results in patent US20220064294A1 (ARCUS BIOSCIENCES, published 2022).

Assay [1] deals with T1, human TIGIT, full length, on cells (human, UniProt Q495A1 22-244).
T1 sequence: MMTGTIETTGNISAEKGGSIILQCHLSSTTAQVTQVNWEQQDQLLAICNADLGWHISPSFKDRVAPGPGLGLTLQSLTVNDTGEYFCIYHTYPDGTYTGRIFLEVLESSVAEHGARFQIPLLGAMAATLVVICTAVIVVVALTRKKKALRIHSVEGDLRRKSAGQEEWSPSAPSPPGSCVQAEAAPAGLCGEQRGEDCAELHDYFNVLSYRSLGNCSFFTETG
Briefly: cell-based or functional assay.

Assay [2] concerns the target T1, human TIGIT, full length, on cells. Briefly: flow cytometry, inhibition of hCD155-Fc binding to CHO-hTIGIT cells. As for the experimental part: The activity of Hu24F8.1-IgG1.AA and Hu24F8.2-IgG1.AA to block the interaction of TIGIT with CD155 was analyzed by flow cytometry using CHO cells stably overexpressing human TIGIT (CHO-hTIGIT) and human CD155-Fc fusion recombinant soluble protein (hCD155-Fc), as described in Example 1. […] The IC₅₀ for Hu24F8.1-IgG1.AA to block the TIGIT-CD155 interaction was 0.68 nM, and for Hu24F8.2-IgG1.AA it was 0.67 nM.
In general terms: Flow cytometry measures light scatter and fluorescence of single cells or particles in a stream.

Another assay has as its target T2, cTIGIT-His (cynomolgus monkey).
T2 construct: also called His-tagged cyno TIGIT protein extracellular domain; soluble cTIGIT-His
T2 chain: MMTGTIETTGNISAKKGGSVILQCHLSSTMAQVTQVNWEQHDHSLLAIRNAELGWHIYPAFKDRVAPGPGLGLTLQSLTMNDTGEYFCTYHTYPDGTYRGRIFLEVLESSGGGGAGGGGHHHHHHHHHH
Nature of the assay: SPR, Biacore T200, antibody captured on anti-human IgG chip, cTIGIT-His as analyte. As for the experimental part: (§1) The purified, full-length antibodies Hu24F8.1-IgG1.AA (containing VH1+VL2) and Hu24F8.2-IgG1.AA (containing VH2+VL2), together with the full-length chimera antibody of 24F8 mouse VH+VL and human IgG1/kappa constant domains (Ch24F8), were analyzed by SPR using a Biacore T200 instrument with antibody capture using an anti-human IgG coated chip and soluble hTIGIT-His or cTIGIT-His as the analyte.
(Surface plasmon resonance follows binding to a sensor surface in real time, without labels.)

Another assay concerns the target T3, hTIGIT-His (human).
T3 construct: also called His-tagged human TIGIT protein extracellular domain; soluble hTIGIT-His
T3 chain: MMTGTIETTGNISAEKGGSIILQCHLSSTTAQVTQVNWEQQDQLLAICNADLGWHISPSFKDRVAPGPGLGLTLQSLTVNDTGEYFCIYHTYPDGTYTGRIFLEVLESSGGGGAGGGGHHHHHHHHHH
Nature of the assay: SPR, Biacore T200, antibody captured on anti-human IgG chip, hTIGIT-His as analyte. As for the experimental part:
as §1

Assay [3] has as its target T4, cynomolgus monkey TIGIT, full length, on cells (cynomolgus monkey).
T4 construct: Whole entry of 312 amino acids; also called cyno TIGIT; cTIGIT
Briefly: flow cytometry on stable CHO-K1 cells expressing cyno TIGIT (clone C10); cyno TIGIT, CHO-K1 clone C10, n=6. The procedure: (§2) Binding of antibodies Hu24F8.1-IgG1.AA and Hu24F8.2-IgG1.AA to TIGIT expressed on cell surface was examined by flow cytometry. Cells expressing TIGIT on cell surface were collected and incubated in 100 μL of HBSS Buffer in the presence (or absence) of various concentrations of antibody for 1 hr at 4° C. After washing with HBSS, antibody binding on cells was detected with 2 μg/mL of Alexa488-labeled goat anti-human IgG antibody (ThermoFisher Scientific, Cat #A-11013) for 30 min at 4° C. Cells were then washed and resuspended in PBS and subjected to flow cytometry using a Attune NxT flow cytometer (ThermoFisher Scientific, Waltham, Mass.). GeoMean of fluorescence intensity was obtained for the whole single cell population, and for transient transfection, non-transfected cells were used to gate for the positive binding cell population to obtain percent of positive cells. Data was calculated by GraphPad Prism using the standard 4-parameter curve fitting.
(§3) Stable CHO-K1 cell lines expressing human TIGIT (clone 2A7) and cyno TIGIT (clone C10) were used to test Hu24F8.1-IgG1.AA and Hu24F8.2-IgG1.AA for their binding to human TIGIT and cyno TIGIT, respectively, as described above. […] Hu24F8.2-IgG1.AA bound to human TIGIT with an EC₅₀ 0.29±0.15 nM (n=8) (FIG. 3A) and to cyno TIGIT with an EC₅₀ of 0.35±0.16 nM (n=6) (FIG. 3B).

The target of assay [4] is T1, human TIGIT, full length, on cells. Nature of the assay: flow cytometry on stable CHO-K1 cells expressing human TIGIT (clone 2A7); human TIGIT, CHO-K1 clone 2A7, n=8. The procedure: as §2, §3
Assay [5] deals with T4, cynomolgus monkey TIGIT, full length, …. Briefly: flow cytometry on cTIGIT-CHO cells. The procedure: (§4) These clones were further expanded, and antibodies were purified using a Protein G column. These purified antibodies were tested for binding to human and cyno TIGIT expressed on cell surface by flow cytometry. Stable CHO-K1 cell lines expressing full length human TIGIT clone 2A7 (Swiss-Prot Q495A1; SEQ ID NO: 80) or full length cyno TIGIT clone C10 (Swiss-Prot A0A2K5UW92; SEQ ID NO: 84) were developed. For the flow assay, cells were collected and incubated in 100 μL of HBSS buffer in the presence (or absence) of various concentrations of antibodies for 1 hr at 4° C. After washing with HBSS, antibody binding on cells was detected with 2 μg/mL of Alexa488-labeled goat anti-mouse IgG antibody (ThermoFisher Scientific, Cat #A-11001) for 30 min at 4° C. Cells were then washed and resuspended in PBS and subjected to flow cytometry using an Attune NxT flow cytometer (ThermoFisher Scientific, Waltham, Mass.). The geometric mean of the fluorescence intensity was obtained for the whole single cell population. Antibodies capable of binding to both human and cyno TIGIT expressed on cell surface were further tested for their blocking activity against recombinant human CD155 binding to human TIGIT on the surface of CHO cells. CHO-hTIGIT cells (10⁵ cells) were incubated with 2.5 μg/mL hCD155-Fc protein in the presence of various concentrations of antibody at room temperature for 1 hr. […] Cells were then washed and subjected to flow cytometry analysis.
(§5) The binding capability of these chimera anti-TIGIT antibodies to cell surface overexpressed human and cyno TIGIT was confirmed utilizing the flow cytometry assay previously described. After incubation of chimera anti-TIGIT antibody with hTIGIT-CHO or cTIGIT-CHO, bound antibody was detected using Alexa488 conjugated goat anti-human IgG antibody (ThermoFisher Scientific, Cat #A-11013). Antibody functional activity in inhibiting recombinant hCD155-hFc binding to hTIGIT-CHO-K1 cells was also determined using flow assay as previously described.

The target of assay [6] is T1, human TIGIT, full length, on cells. Briefly: flow cytometry on hTIGIT-CHO cells. The procedure:
as §4, §5

Assay [7] has the same target. Nature of the assay: flow cytometry, endogenous TIGIT on isolated human CD4+ T cells. The procedure:
(§6) The ability of chimera anti-TIGIT antibodies to bind to endogenously expressed TIGIT on isolated human CD4⁺ and CD8⁺ cells was tested using a flow cytometry assay. Human CD4⁺ or CD8⁺ T cells were isolated from human whole blood using RosetteSep™ Human CD4⁺ T cell Enrichment Cocktail (Stemcell, Cat #15022) or Human CD8⁺ T cell enrichment Cocktail (Stemcell, […]), respectively. […] However, differences in max binding activity (MFImax) was observed between clones.

For assay [8] the target is unchanged. Briefly: flow cytometry, endogenous TIGIT on isolated human CD8+ T cells. The procedure:
as §6

Assay [9] has the same target. Briefly: flow cytometry, inhibition of hCD155-hFc binding to hTIGIT-CHO-K1 cells. The procedure: as §4, §5
Assay [10] has as its target T5, soluble His-tagged TIGIT (Acro Biosystems, Cat #No. TIT-H52H3) (human, UniProt Q495A1 22-141).
T5 construct: Bought protein; also called His-tagged human TIGIT
T5 sequence (looked up): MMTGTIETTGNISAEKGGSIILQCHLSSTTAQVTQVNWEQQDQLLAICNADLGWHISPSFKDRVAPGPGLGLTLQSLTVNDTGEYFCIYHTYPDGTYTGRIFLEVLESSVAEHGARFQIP
Briefly: SPR, ProteOn XPR36, antibody on Protein A chip, soluble His-tagged TIGIT as analyte, 25 C. The procedure:
The kinetic binding of these recombinant anti-TIGIT antibodies to human TIGIT was determined by surface plasmon resonance (SPR) using a Bio-Rad ProteOn XPR36 instrument. Recombinant antibodies were immobilized using a Protein A coated GLC sensor chip, and soluble His-tagged TIGIT (Acro Biosystems, Cat #No. TIT-H52H3) was used as the analyte. The binding constants were determined at 25° C.

B1: Hu24F8.1-IgG1.AA (antibody, V domains shown)
VH: QVQLQESGPGLVKPSETLSLTCAVYGYSITSGYSWHWIRQPPGKGLEWIGYVHYSGSTNYNPSLKSRVTISVDTSKNQFSLKLSSVTAADTAVYYCARMDYGNYGGAMDYWGQGTLVTVSS
VL: EIVMTQSPATLSVSPGERATLSCKASQDVRTAVAWYQQKPGQAPRLLIYSASYRYTGIPARFSGSGSGTEFTLTISSLQSEDFAVYYCQQYYSTQWTFGGGTKVEIKR
notes: IgG1/kappa; also called Hu24F8.1 (VH1+VL2), IgG1/kappa with L234A/L235A
Usually IC50 stands for the concentration that inhibits the measured activity by half. Usually Kd stands for the equilibrium constant for the complex coming apart. A word on the koff: it is a measure of how fast the partners let go of each other. A word on the kon: it is the second-order rate constant of association. A word on the EC50: it is the concentration giving half of the maximal effect. Take B1: the “EC50 of luciferase reporter activity, TIGIT/CD155 Blockade Bioassay (Jurkat cells overexpressing TIGIT with CD155 aAPC/CHO-K1 cells)” value in assay [1] is 3.35 nM. This molecule came in with an IC50 in assay [2] of 0.68 nM. In the assay with cTIGIT-His, this molecule showed a Kd of 1.74 nM, a koff of 0.0014 s⁻¹ and a kon of 806000 M⁻¹ s⁻¹. In the assay with hTIGIT-His, this molecule came in with a Kd of 0.144 nM, a koff of 0.000145 s⁻¹ and a kon of 1.01e+06 M⁻¹ s⁻¹. Besides, the EC50 in assay [3] came to 0.237 nM. In assay [4], this molecule had an EC50 of 0.447 nM.

B2: Ch24F8 (antibody, human IgG1, V domains shown)
VH: DVQLQESGPDLVKPSQSLSLTCTVTGYSITSGYSWHWIRQFPGNKLDWMGYVHYSGSTNYNPSLKSRISITRDTSKNQFFLQLNSVTTEDTATFYCARMDYGNYGGAMDYWGQGTSVTVSS
VL: EIVMTQSHKFMSTSVGDRVSITCKASQDVRTAVAWYQQKPGQSPKLLIYSASYRYTGVPDRFTGSGSGTDFTFTISSVQAEDLAVYYCQQYYSTQWTFGGGTKLEIK
notes: also called full-length chimera antibody of 24F8 mouse VH+VL and human IgG1/kappa constant domains
For the molecule B2, the concentration giving a half-maximal response (EC50) in assay [5] stood at 0.199 nM; in assay [6], 0.15 nM; in assay [7], 0.13 nM; in assay [8] it was 0.177 nM. Also, the “CD4+ MFImax” value in assay [7] worked out at 210 MFI. Moreover, the “CD8+ MFImax” value in [8] was determined as 5800 MFI. Besides, the half-inhibitory concentration (IC50) in assay [9] amounted to 0.62 nM. Also, the results for the Kd (with cTIGIT-His; in the assay with hTIGIT-His; in assay [10]) were 1.66 nM, 0.183 nM and 0.035 nM, respectively. Besides, the koff with cTIGIT-His stood at 0.00109 s⁻¹; in the assay with hTIGIT-His, 0.000156 s⁻¹; in assay [10] it was 7.5e-05 s⁻¹. Further, the association rate constant (kon) in the assay with cTIGIT-His was determined as 658000 M⁻¹ s⁻¹; with hTIGIT-His it was 853000 M⁻¹ s⁻¹; in [10], 2.15e+06 M⁻¹ s⁻¹.
